Experiments:
EPHB1 = EPHB1 (UniProt P54762); assay: phosphorylation enrichment, bacterial display (enrichment ratio); higher = better substrate or ligand; peptides without Tyr show the background
Fes = Fes (UniProt P07332); assay: as above
c-Src = assay: as above
FGFR3 = FGFR3 (UniProt P22607); assay: as above
Fer (mouse) = assay: as above
Jak2 = Jak2 (UniProt O60674); assay: as above
Fyn = Fyn (UniProt P06241); assay: as above
MERTK = MERTK (UniProt Q12866); assay: as above
FGFR1 = FGFR1 (UniProt P11362); assay: as above
Chain of FGFR1 (P11362 whole entry, looked up): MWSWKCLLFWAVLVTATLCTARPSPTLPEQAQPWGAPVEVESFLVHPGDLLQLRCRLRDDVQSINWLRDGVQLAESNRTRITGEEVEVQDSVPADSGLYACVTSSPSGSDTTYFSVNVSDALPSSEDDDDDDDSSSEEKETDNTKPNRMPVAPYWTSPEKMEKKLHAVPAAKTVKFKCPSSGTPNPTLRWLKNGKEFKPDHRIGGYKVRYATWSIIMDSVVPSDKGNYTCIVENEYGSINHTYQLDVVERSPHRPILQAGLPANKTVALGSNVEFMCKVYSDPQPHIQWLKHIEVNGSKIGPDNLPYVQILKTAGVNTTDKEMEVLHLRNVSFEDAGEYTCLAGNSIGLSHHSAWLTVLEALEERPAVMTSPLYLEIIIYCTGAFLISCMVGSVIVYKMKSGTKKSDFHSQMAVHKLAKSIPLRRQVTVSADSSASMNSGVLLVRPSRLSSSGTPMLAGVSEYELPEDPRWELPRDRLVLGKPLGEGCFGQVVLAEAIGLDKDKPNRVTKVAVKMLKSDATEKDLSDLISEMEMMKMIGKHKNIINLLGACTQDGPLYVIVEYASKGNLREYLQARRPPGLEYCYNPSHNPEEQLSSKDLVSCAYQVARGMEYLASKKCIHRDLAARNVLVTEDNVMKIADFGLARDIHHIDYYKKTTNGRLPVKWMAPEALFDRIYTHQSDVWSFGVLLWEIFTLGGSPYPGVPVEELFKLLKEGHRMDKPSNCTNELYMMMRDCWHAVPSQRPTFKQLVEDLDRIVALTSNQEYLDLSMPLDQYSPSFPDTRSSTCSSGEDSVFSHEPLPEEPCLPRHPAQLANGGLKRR

c-Abl (mouse) = assay: as above
EPHB2 = EPHB2 (UniProt P29323); assay: as above
AncSZ = assay: as above
Hck = Hck (UniProt P08631); assay: as above
Chain of Hck (P08631 whole entry, looked up): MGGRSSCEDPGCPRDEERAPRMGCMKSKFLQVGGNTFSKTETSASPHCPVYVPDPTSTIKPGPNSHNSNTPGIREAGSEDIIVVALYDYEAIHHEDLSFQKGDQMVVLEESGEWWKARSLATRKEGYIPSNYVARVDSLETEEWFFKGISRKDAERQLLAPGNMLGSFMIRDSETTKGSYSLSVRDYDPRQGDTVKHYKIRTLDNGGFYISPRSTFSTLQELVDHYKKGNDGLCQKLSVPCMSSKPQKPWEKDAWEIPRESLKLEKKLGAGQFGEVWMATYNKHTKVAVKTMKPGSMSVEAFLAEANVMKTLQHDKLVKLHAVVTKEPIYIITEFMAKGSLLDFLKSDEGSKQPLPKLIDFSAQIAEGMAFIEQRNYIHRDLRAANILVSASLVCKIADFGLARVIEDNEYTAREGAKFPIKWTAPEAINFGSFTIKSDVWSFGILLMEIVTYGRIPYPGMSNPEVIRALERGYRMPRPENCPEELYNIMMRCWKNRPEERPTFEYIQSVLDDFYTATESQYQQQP

Grb2 SH2 = Grb2 SH2 (UniProt P62993); assay: SH2 binding enrichment of the phosphorylated peptide, bacterial display (enrichment ratio); higher = better substrate or ligand; peptides without Tyr show the background
c-Src SH2 = assay: as above
SHP2-C SH2 = assay: as above
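For SH2 binding enrichment of the phosphorylated peptide, bacterial display in this document: peptide library displayed on the E. coli surface as eCPX fusions, selected cells deep-sequenced, score is each peptide's frequency after selection divided by its frequency in the input.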
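For phosphorylation enrichment, bacterial display in this document: 11-residue human phosphosite peptides and single-mutation variants displayed on the E. coli surface, counted by deep sequencing, each peptide's frequency after selection divided by its frequency in the unselected input library; frequency after pTyr selection over input frequency; kinase dosed for 20-30% of maximal phosphorylation in three min.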

Chain of Jak2 (O60674 whole entry, looked up): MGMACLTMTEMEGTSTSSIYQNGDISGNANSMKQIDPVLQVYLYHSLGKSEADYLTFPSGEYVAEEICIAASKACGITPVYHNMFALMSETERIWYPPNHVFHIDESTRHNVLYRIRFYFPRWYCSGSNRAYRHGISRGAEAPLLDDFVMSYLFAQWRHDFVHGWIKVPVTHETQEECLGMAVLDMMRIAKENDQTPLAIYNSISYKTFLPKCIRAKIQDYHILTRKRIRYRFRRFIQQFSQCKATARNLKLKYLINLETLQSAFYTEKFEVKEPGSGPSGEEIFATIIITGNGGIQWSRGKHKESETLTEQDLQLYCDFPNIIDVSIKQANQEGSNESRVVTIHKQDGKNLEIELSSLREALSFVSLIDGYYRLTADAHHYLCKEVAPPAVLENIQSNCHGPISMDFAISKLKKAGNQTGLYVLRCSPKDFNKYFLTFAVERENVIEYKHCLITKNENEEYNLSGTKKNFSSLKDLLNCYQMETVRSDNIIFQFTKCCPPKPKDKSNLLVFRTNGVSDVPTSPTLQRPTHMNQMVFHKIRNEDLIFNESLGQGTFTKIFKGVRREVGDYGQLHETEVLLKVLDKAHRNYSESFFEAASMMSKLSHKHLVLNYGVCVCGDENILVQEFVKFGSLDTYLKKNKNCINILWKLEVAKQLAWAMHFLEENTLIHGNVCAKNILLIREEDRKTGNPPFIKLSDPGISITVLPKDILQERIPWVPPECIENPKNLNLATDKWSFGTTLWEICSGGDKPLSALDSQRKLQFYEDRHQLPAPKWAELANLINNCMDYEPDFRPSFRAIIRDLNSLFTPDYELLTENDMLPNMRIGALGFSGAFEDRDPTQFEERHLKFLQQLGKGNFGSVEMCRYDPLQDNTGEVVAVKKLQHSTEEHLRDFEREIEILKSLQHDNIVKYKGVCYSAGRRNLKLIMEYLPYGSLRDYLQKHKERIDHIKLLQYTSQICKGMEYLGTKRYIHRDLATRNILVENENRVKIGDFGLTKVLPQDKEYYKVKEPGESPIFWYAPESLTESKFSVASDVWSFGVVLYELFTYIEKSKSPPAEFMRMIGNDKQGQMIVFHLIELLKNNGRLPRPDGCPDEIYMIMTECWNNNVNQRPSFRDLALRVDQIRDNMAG
Chain of Fes (P07332 whole entry, looked up): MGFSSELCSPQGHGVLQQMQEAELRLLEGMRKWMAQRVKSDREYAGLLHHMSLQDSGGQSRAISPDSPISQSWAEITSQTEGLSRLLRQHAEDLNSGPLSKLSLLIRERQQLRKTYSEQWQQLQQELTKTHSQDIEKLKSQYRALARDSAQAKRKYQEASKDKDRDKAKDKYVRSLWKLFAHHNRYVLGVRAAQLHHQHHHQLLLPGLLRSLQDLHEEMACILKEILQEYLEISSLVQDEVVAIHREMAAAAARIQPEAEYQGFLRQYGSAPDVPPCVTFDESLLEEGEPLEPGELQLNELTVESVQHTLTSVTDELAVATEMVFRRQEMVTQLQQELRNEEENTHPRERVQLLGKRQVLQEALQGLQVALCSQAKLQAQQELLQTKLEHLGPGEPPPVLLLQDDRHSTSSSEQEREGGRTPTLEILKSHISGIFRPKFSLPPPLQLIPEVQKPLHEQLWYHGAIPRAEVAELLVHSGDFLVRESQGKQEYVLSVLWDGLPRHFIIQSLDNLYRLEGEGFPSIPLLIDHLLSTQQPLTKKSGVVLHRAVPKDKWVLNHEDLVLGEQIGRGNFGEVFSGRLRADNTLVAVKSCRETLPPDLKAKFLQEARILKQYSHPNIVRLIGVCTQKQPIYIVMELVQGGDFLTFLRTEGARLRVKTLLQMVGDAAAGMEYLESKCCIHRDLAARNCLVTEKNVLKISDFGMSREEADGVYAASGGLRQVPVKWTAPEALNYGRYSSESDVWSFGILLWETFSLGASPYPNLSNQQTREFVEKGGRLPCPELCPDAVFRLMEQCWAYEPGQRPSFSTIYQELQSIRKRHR
Chain of EPHB1 (P54762 whole entry, looked up): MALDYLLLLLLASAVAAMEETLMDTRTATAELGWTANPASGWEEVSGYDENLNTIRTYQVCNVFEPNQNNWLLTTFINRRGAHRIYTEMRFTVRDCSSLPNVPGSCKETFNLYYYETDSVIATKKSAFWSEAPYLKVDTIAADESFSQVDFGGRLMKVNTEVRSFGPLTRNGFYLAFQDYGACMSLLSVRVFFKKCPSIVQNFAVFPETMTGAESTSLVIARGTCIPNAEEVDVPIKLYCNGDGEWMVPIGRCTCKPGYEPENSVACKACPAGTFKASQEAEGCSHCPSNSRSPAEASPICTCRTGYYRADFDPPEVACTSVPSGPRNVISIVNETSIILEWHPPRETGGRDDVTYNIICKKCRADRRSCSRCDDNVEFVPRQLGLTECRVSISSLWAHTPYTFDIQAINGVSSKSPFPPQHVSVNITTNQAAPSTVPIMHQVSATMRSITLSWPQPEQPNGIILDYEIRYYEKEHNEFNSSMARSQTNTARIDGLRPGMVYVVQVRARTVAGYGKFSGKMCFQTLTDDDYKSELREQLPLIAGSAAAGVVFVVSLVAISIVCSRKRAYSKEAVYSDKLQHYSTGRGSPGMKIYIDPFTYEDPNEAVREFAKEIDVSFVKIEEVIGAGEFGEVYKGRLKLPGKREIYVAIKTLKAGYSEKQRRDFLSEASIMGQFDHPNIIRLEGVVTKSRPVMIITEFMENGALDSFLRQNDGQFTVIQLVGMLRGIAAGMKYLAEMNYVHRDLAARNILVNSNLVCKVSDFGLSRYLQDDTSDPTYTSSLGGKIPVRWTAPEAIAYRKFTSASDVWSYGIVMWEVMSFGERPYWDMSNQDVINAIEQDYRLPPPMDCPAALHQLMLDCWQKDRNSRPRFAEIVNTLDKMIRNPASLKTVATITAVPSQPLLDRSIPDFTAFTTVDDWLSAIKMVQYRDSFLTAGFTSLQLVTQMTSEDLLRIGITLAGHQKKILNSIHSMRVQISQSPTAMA
Chain of Fyn (P06241 whole entry, looked up): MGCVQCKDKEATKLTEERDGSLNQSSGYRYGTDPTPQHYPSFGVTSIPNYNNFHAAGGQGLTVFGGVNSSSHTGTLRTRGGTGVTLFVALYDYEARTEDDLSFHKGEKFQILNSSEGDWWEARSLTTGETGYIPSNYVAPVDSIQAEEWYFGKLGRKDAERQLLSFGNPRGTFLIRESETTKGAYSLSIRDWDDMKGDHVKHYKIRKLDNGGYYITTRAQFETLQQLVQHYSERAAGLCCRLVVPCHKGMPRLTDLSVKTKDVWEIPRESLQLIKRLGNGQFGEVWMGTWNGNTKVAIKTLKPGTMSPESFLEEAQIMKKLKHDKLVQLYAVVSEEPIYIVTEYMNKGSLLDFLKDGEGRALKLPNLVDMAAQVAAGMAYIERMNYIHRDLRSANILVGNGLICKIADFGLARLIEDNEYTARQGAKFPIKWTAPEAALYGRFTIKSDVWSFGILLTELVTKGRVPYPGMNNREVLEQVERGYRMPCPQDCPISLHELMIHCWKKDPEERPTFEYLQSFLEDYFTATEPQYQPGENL

Sequence	SH2 binding enrichment (Grb2 SH2)	SH2 binding enrichment (c-Src SH2)	SH2 binding enrichment (SHP2-C SH2)	phosphorylation enrichment (EPHB1)	phosphorylation enrichment (Fes)	phosphorylation enrichment (c-Src)	phosphorylation enrichment (FGFR3)	phosphorylation enrichment (Fer (mouse))	phosphorylation enrichment (Jak2)	phosphorylation enrichment (Fyn)	phosphorylation enrichment (MERTK)	phosphorylation enrichment (FGFR1)	phosphorylation enrichment (c-Abl (mouse))	phosphorylation enrichment (EPHB2)	phosphorylation enrichment (AncSZ)	phosphorylation enrichment (Hck)
ATVRPYRPFII [LRP5_Y1528_A1525V_YF]	0.953	0.616	0.79	0.438	0.61	0.493	0.459	0.406	0.644	0.397	0.395	0.418	0.505	0.336	0.653	0.462
AVLQLYIFVAT [CFTR_Y1014_P1013L]	1	0.439	0.701	0.766	1.37	0.567	1.09	0.573	1.24	0.516	0.498	0.462	0.837	0.599	1.3	0.562
CDKEYYSVHNK [MET_Y1235_Y1230C]	0.655	0.51	0.553	0.734	1.2	0.761	2.09	0.601	1.32	0.608	0.573	2.49	0.949	0.69	2.06	0.788
CENNRYGMGAS [PDHA1_Y227_T231A]	0.849	0.457	0.723	0.403	0.754	0.349	0.476	0.365	0.629	0.405	0.324	0.413	0.594	0.421	0.655	0.392
CNPRRYPVLMS [OR2T1_Y182_L180R]	1.1	1.18	0.954	0.49	0.833	0.494	0.485	0.358	0.822	0.501	0.411	0.384	0.59	0.496	0.625	0.373
CPFNLYAEQLS [HGD_Y40_YF]	0.892	0.645	0.708	1.16	1.37	0.696	0.698	0.636	0.935	0.642	0.769	0.577	0.77	0.816	1.15	0.772
CPPKVYELMIA [ABL2_Y515_R519I]	0.817	1.44	0.658	7.46	1.34	1.99	0.959	7.5	1.2	0.916	5.18	1.34	0.766	2.25	1.24	1.03
DAHFTYSRYPW [LY75_Y888_D884A]	0.817	0.51	0.761	2.76	0.885	3.24	0.641	0.5	1.02	2.4	1.27	0.716	1.19	5.6	1.16	3.76
DAKTIYDFTDT [PDK1_Y136_A134T]	0.748	0.46	0.58	0.696	1.07	3.32	0.729	1.61	0.876	3.52	1.48	0.508	0.724	0.604	1.07	1.33
DDEVFYSPRSL [OTC_Y317]	0.774	0.47	0.647	0.597	1.36	0.87	0.847	1.57	1.36	0.574	0.592	0.504	1.22	0.597	1.67	2
DDIPLYLKGGV [COX7A2_Y44_E40D]	0.862	0.479	0.663	0.525	1.12	0.435	0.737	0.401	1.02	0.459	0.41	0.496	0.673	0.701	1.01	0.513
DEDEEYEFMNR [ERBB3_Y1197_YF]	1.04	0.664	1.28	0.503	1.17	0.456	0.788	0.487	0.965	0.592	0.538	0.724	0.692	0.515	1.26	0.579
DEGVNHFMSKG [FBXO8_Y156_Y156H]	0.718	0.464	0.778	0.433	0.64	0.297	0.504	0.357	0.42	0.443	0.324	0.436	0.516	0.424	0.61	0.364
DFGSGYPNDPK [RNASEH2A_Y210_YF]	0.749	0.409	0.712	0.516	0.678	0.464	0.579	0.39	0.906	0.382	0.424	0.397	0.562	0.469	0.778	0.423
DHLASYLDKVR [KRT10_Y160_R156H]	0.776	0.44	0.714	0.369	0.677	0.457	0.469	0.363	0.639	0.406	0.453	0.46	0.473	0.477	0.585	0.439
DIPIRYSITGV [CDH4_Y205]	0.774	0.53	0.972	0.391	0.827	0.367	0.478	0.402	0.85	0.447	0.405	0.444	0.641	0.474	0.822	0.45
DLDLTSIFPNI [PTEN_Y27_Y27S_YF]	0.722	0.48	0.524	0.402	0.814	0.358	0.578	0.441	0.726	0.475	0.447	0.301	0.677	0.485	0.861	0.497
DPLASYLDKVR [KRT10_Y160_R156P]	0.864	0.545	0.767	0.413	0.744	0.44	0.534	0.455	0.521	0.468	0.441	0.48	0.392	0.608	0.751	0.477
DRLASYRDKVR [KRT12_Y139_L140R]	0.878	1.09	0.947	0.294	0.447	0.347	0.425	0.366	0.587	0.372	0.332	0.27	0.442	0.338	0.466	0.327
DRLAVCIDRVR [LMNA_Y45_Y45C]	0.807	0.541	0.653	0.605	1.15	0.436	0.682	0.457	0.904	0.46	0.394	0.467	0.76	0.518	0.942	0.477

Second part, led by results:

SH2 binding enrichment (Grb2 SH2)	SH2 binding enrichment (c-Src SH2)	SH2 binding enrichment (SHP2-C SH2)	Sequence	phosphorylation enrichment (EPHB1)	phosphorylation enrichment (Fes)	phosphorylation enrichment (c-Src)	phosphorylation enrichment (FGFR3)	phosphorylation enrichment (Fer (mouse))	phosphorylation enrichment (Jak2)	phosphorylation enrichment (Fyn)	phosphorylation enrichment (MERTK)	phosphorylation enrichment (FGFR1)	phosphorylation enrichment (c-Abl (mouse))	phosphorylation enrichment (EPHB2)	phosphorylation enrichment (AncSZ)	phosphorylation enrichment (Hck)
1.02	0.586	0.925	AVDDKYSRREE [SART1_Y685_I681V]	0.453	0.977	0.427	0.581	0.458	0.679	0.567	0.426	0.457	0.478	0.516	0.887	0.533
0.752	0.517	0.588	AVLALHNSTRD [TGFB1_Y81_Y81H]	0.354	0.647	0.322	0.387	0.38	0.519	0.423	0.398	0.346	0.494	0.323	0.546	0.359
1.47	0.759	0.996	CEHRGFLFLAI [TEK_Y897_Y897F_YF]	0.392	1.16	0.506	0.651	0.515	1.06	0.403	0.442	0.484	0.907	0.513	0.949	0.434
1.56	1.57	1.44	CITIHYNYMCN [TP53_Y234_T230I]	0.605	1.01	0.381	0.662	0.569	0.881	0.423	0.389	0.474	0.582	0.515	0.923	0.44
1.11	6.46	3.83	CSTIHYNYMCN [TP53_Y234_T230S]	0.586	0.758	0.435	0.585	0.555	0.656	0.461	0.375	0.545	0.411	0.542	0.784	0.399
2.01	1.93	2.02	CTTIHFNFMCN [TP53_Y234_Y234F_YF]	0.604	1.31	0.507	0.83	0.569	1.33	0.484	0.525	0.614	0.824	0.656	1.07	0.582
0.756	2.42	0.658	CTTIHYNDMCN [TP53_Y234_Y236D]	0.451	0.85	0.492	0.539	0.421	0.724	0.422	0.396	0.485	0.589	0.528	1.03	0.455
1.95	1.58	2.01	CTTIHYNFMCF [TP53_Y234_N239Y_YF]	0.608	1.12	0.474	0.738	0.671	0.913	0.414	0.409	0.621	0.683	0.522	1.04	0.451
0.924	0.669	0.802	CTTIHYNFMWN [TP53_Y234_C238W_YF]	0.725	1.66	0.59	0.981	1.04	1.5	0.508	0.717	0.621	1.09	0.727	1.43	0.543
1.45	4.93	4.87	CTTIHYNYLCN [TP53_Y234_M237L]	0.482	0.84	0.394	0.594	0.568	0.655	0.51	0.436	0.505	0.479	0.491	0.873	0.536
1.48	3.56	1.55	CTTIRYNYMCN [TP53_Y234_H233R]	0.461	0.81	0.417	0.544	0.479	0.674	0.464	0.457	0.475	0.491	0.583	0.787	0.449
1.21	4.31	2.06	CTTLHYNYMCN [TP53_Y234_I232L]	0.808	1.01	0.508	0.745	1.41	0.827	0.492	0.558	0.811	0.675	0.618	0.858	0.547
0.829	0.844	2.8	DGTIVYTGLET [USH2A_Y4487]	0.525	1.01	1.05	0.636	0.468	0.901	0.706	0.465	0.755	0.764	0.528	0.821	0.773
